Assays:
[1] = target: human μ-opioid receptor (μOR) M153F, with HA signal sequence at the N terminus and LgBiT at the C terminus (modified pfastbac1) (human) (UniProt P35372); test: split reporter (BiFC, NanoBiT); NanoBiT on Sf9 membranes co-expressing μOR-LgBiT, Gαi1, Gβ1-SmBiT and Gγ2, in PBS pH 7.4; dose-response of DAMGO, 15 min at room temperature, luminescence; normalized to DAMGO
[2] = target: human μ-opioid receptor (μOR) M153I, with HA signal sequence at the N terminus and LgBiT at the C terminus (modified pfastbac1) (human) (UniProt P35372); test: as above
[3] = target: human μ-opioid receptor (μOR) M153L, with HA signal sequence at the N terminus and LgBiT at the C terminus (modified pfastbac1) (human) (UniProt P35372); test: as above
[4] = target: human μ-opioid receptor (μOR) M153A, with HA signal sequence at the N terminus and LgBiT at the C terminus (modified pfastbac1) (human) (UniProt P35372); test: split reporter (BiFC, NanoBiT); NanoBiT on Sf9 membranes co-expressing μOR-LgBiT, Gαi1, Gβ1-SmBiT and Gγ2, in PBS pH 7.4; dose-response of fentanyl, 15 min at room temperature, luminescence; normalized to DAMGO
[5] = target: human μ-opioid receptor (μOR) M153F, with HA signal sequence at the N terminus and LgBiT at the C terminus (modified pfastbac1) (human) (UniProt P35372); test: as above
[6] = target: human μ-opioid receptor (μOR) M153I, with HA signal sequence at the N terminus and LgBiT at the C terminus (modified pfastbac1) (human) (UniProt P35372); test: as above
[7] = target: human μ-opioid receptor (μOR) M153L, with HA signal sequence at the N terminus and LgBiT at the C terminus (modified pfastbac1) (human) (UniProt P35372); test: as above
[8] = target: human μ-opioid receptor (μOR) M153V, with HA signal sequence at the N terminus and LgBiT at the C terminus (modified pfastbac1) (human) (UniProt P35372); test: as above

Gi protein complex (Gαi1, Gβ1 with SmBiT at the C terminus, Gγ2), sequence (P63096 whole entry): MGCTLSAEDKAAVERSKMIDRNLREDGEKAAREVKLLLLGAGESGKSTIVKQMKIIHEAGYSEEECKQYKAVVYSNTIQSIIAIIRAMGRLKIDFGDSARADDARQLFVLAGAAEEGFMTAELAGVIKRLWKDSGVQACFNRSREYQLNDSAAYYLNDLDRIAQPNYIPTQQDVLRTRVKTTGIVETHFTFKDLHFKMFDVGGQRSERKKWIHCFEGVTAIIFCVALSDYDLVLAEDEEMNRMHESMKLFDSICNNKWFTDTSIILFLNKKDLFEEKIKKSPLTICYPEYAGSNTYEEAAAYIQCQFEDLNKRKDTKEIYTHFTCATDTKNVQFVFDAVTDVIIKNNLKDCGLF
Gi protein complex (Gαi1, Gβ1 with SmBiT at the C terminus, Gγ2), sequence (P62873 whole entry): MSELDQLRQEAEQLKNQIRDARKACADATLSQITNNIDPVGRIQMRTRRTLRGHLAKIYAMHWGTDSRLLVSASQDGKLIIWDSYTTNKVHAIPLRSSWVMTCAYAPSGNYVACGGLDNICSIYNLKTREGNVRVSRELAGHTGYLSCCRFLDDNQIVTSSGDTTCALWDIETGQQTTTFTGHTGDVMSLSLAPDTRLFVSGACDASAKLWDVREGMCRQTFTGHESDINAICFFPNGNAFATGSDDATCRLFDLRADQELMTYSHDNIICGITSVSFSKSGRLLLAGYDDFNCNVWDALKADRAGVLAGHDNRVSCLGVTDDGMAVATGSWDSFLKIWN
Gi protein complex (Gαi1, Gβ1 with SmBiT at the C terminus, Gγ2), sequence (P59768 whole entry): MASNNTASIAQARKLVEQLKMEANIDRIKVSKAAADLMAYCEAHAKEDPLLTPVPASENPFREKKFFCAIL

Q: “Gi protein complex (Gαi1, Gβ1 with SmBiT at the C terminus, Gγ2) (from UniProt P63096 1-354; P62873 1-340; P59768 1-71)” was tested. Which maximal Gi coupling (normalized to DAMGO) [1] did it give?
A: 100%

Q: What about the maximal Gi coupling (normalized to DAMGO) [2] of the same substance?
A: 100%

Q: What about the maximal Gi coupling (normalized to DAMGO) [3] of the same substance?
A: 100%

Q: And the maximal Gi coupling (normalized to DAMGO) [4]?
A: < 55%

Q: And the maximal Gi coupling (normalized to DAMGO) [5]?
A: < 55%

Q: And the maximal Gi coupling (normalized to DAMGO) [6]?
A: < 55%

Q: What about the maximal Gi coupling (normalized to DAMGO) [7] of the same substance?
A: < 55%

Q: What about the maximal Gi coupling (normalized to DAMGO) [8] of the same substance?
A: < 55%
